Results taken from paper PMC6890836, “Exploiting Substrate Promiscuity of Ectoine Hydroxylase for Regio- and Stereoselective Modification of Homoectoine” (Frontiers in Microbiology, 2019).

Tests used:
Assay in all cases: purified protein
purified protein [1] = substrate: CC1=NC(C(=O)O)CCCN1; assay type: biochemical, Stutzerimonas stutzeri; conditions: 10 mM 2-oxoglutarate, 1 mM FeSO4, 100 mM KCl, 100 mM TES pH 7.5, 35 °C, no catalase
purified protein [2] = substrate: CC1=N[C@H](C(=O)O)CCN1; assay type: biochemical, Stutzerimonas stutzeri; conditions: 10 mM 2-oxoglutarate, 1 mM FeSO4, 100 mM KCl, 100 mM TES pH 7.5, 35 °C, no catalase
purified protein [3] = substrate: CC1=NC(C(=O)O)CCCN1; assay type: biochemical, Sphingopyxis alaskensis; conditions: 10 mM 2-oxoglutarate, 1 mM FeSO4, 100 mM KCl, 100 mM TES pH 7.5, 15 °C, 1300 U bovine catalase
purified protein [4] = substrate: CC1=N[C@H](C(=O)O)CCN1; assay type: biochemical, Sphingopyxis alaskensis; conditions: 10 mM 2-oxoglutarate, 1 mM FeSO4, 100 mM KCl, 100 mM TES pH 7.5, 15 °C, 1300 U bovine catalase

B1: (Ps)EctD, ectoine hydroxylase from P. stutzeri A1501 (Stutzerimonas stutzeri A1501) (protein)
chain: MQADLYPSRQEDQPSWQERLDPVVYRSDLENAPIAAELVERFERDGYLVIPNLFSADEVALFRAELERMRQDPAVAGSGKTIKEPDSGAIRSVFAIHKDNELFARVAADERTAGIARFILGGDLYVHQSRMNFKPGFTGKEFYWHSDFETWHIEDGMPRMRCLSCSILLTDNEPHNGPLMLMPGSHKHYVRCVGATPENHYEKSLRKQEIGIPDQNSLSELASRFGIDCATGPAGSVVFFDCNTMHGSNGNITPSARSNLFYVYNHVDNAVQAPFCEQKPRPAFVAERENFKPLDIRPQQYL
notes: full-length, Strep-tag II fusion (tag kept), from plasmid pMP41 in E. coli BL21(DE3); EctD is a dimer in solution
Purified protein [1]
  Km: 2.6 ± 0.2 mM
Purified protein [2]
  Km: 2.3 ± 0.2 mM

B2: (Sa)EctD, ectoine hydroxylase from S. alaskensis (Sphingopyxis alaskensis RB2256) (protein)
chain: MQDLYPSRQRADAEMRPRLDPVVHSEWTNDAPISARQAAAFDRDGYIVLEDIFSADEVAFLQKAAGNLLADPAALDADTIVTEPQSNEIRSIFEIHAQSPVMARLAADARLADVARFLLGDEVYIHQSRLNYKPGFKGREFYWHSDFETWHVEDGMPRMRALSMSVLLAENTPHNGPLMVIPGSHRTYLTCVGETPDDHYLSSLKKQEYGVPDEESLAELAHRHGIVAPTGKPGTVILFDCNLMHGSNGNITPFPRANAFLVYNAVSNRLEKPFGVEKPRPWFLARRGEPAALRVERGPLVETVPA
notes: full-length, Strep-tag II fusion (tag kept), from plasmid pMP40 in E. coli BL21(DE3); dimer
Purified protein [3]
  Km: 3.1 ± 0.3 mM
Purified protein [4]
  Km: 0.8 ± 0.1 mM
